Experimental data as given in patent US20210388081A1 (Memorial Sloan Kettering, published 2021).
Where a chain is given by its changes, count along the chain named.

B1: ET200-099 (scFv)
scFv: QSVLTQPPSASGTPGQRVTISCSGSSSNIGSNTVNWYQQLPGTAPKLLIYSNDQRPSGVPDRFSGSKSGTSASLAISGLQSEDEADYYCASWDDSLNGRYVFGTGTKVTVLGSRGGGGSGGGGSGGGGSLEMAQVQLVQSGAEVRKPGASVKVSCKTSGYTFSWYAIHWVRQAPGQRLEWMGWINAGNGNTKYSQKFQGRVSLTRDTSASTAYMELSSLRSDDTAVYYCARPDNYGSGGDVFDIWGQGTMVTVSSTSGQAGQHHHHHHGAYPYDVPDYAS
notes: screened as phage clone; entry is VL-linker-VH-His tag-HA tag
B2: ET200-100 (scFv)
scFv: NFMLTQPHSVSESPGKTVTISCTRSSGSIASNFVQWYQQRPGSAPTPMIYEDNNRPPGVPDRFSASVDSSSNSASLTISGLKTEDEADYYCQSYDTSNVVFGGGTKLTVLGSRGGGGSGGGGSGGGGSLEMAEVQLVESGGGLVQPGGSLRLSCAASGFTFSSYEMNWVRQAPGKGLEWVSYISSSGSTIYYADSVKGRFTISRDNAKNSLYLQMNSLRAEDTAVYYCARWDYGMDVWGQGTTVTVSSTSGQAGQHHHHHHGAYPYDVPDYAS
notes: as for B1
B3: ET200-104 (scFv)
scFv: B2 scFv with F33Y, P47T, M48V, N54Q, P57S, A65G, V67I, T96S, L107V
notes: as for B1
B4: ET200-101 (scFv)
scFv: QAVLTQPPSASGAPGQRVTVSCSGSNSNIGSNYVNWYQQFPGTAPKLLMYSSSQRPSGVPDRFSGSKSGTSASLAISGLHSEDEADYYCATWDDSLNAWVFGGGTKLTVLGSRGGGGSGGGGSGGGGSLEMAEVQLVQSGAEVRKPGASVKVSCKTSGYTFTWYAIHWVRQAPGQRLEWMGWINAGSGNTKYSQKFQGRVTLTRDTSASTAYMELSSLRSDDTAVYYCARPNNYGSGGDVFDIWGQGTMVTVSSTSGQAGQHHHHHHGAYPYDVPDYAS
notes: as for B1
B5: ET200-102 (scFv)
scFv: QSVVTQPPSVSAAPGQKVTISCSGSSSNIGNNYVSWYQQLPGTAPKLLIYDNNKRPSGIPDRFSGSKSGTSATLGITGLQTGDEADYYCGTWDSSLSAYVFGTGTKVTVLGSRGGGGSGGGGSGGGGSLEMAQVQLVQSGAEVKKPGASVKVSCKASGYTFTNYALHWVRQAPGQGLEWMAWINGGNGNTKYSQNFQGRVTITRDTSASTAYMELSSLRSEDTAVYYCAKPEETAGTIHFDYWGQGTPVTVSSTSGQAGQHHHHHHGAYPYDVPDYAS
notes: as for B1
B6: ET200-103 (scFv)
scFv: QAVLTQPHSVSESPGKTVTISCTRSSGSIASNYVQWYQQRPGSAPTTVIYEDNQRPSGVPDRFSGSIDSSSNSASLTISGLKTEDEADYYCQSYDSTITVFGGGTKLTVLGSRGGGGSGGGGSGGGGSLEMAQVQLVQSGAEVKKPGSSVKVSCKASGGTFSSYAISWVRQAPGQGLEWMGGIIPIFGTANYAQKFQGRVTITADESTSTAYMELSSLRSEDTAVYYCAGEGYYDSSGYSNGDAFDIWGQGTMVTVSSTSGQAGQHHHHHHGAYPYDVPDYAS
notes: as for B1
B7: ET200-105 (scFv)
scFv: SYVLTQPPSVSVSPGQTASITCSGDRLTNKYVSWYQQKPGQSPVLVIYEDAKRPSGIPARFSGSNSGNTATLTISGTQAMDESEYYCQAWDSSVVVFGGGTKLTVLGSRGGGGSGGGGSGGGGSLEMAEVQLVESGGGLVQPGRSLRLSCAASGFTFDDYAMHWVRQAPGKGLEWVSGISWNSGSIGYADSVKGRFTISRDNAKNSLYLQMNSLRDEDTALYYCAKDRGGGVIVKDAFDIWGQGTMVTVSSTSGQAGQHHHHHHGAYPYDVPDYAS
notes: as for B1
B8: ET200-106 (scFv)
scFv: SYELTQPPAASGTPGQRVTISCSGGVSNIGSGALNWYQQLPGTAPKLLIYSYNQRPSGVSDRFSGSRSATSASLAISGLQSEDEADYYCATWDDSVNGWVFGGGTKLTVLGSRGGGGSGGGGSGGGGSLEMAEVQLVESGAEVKKPGDSVKVSCKPSGYNFLNYGINWVRQAPGQGLEWMGWISTYTGNTNYAQKLQGRVTFTTDTSTSTAYMEMRSLRSDDTAVYYCARQQGGGWYDVWGQGTLVTVSSTSGQAGQHHHHHHGAYPYDVPDYAS
notes: as for B1
B9: ET200-107 (scFv)
scFv: QSVVTQPPSVSAAPGEKVTISCSGSNFNVGNNDVSWYQQLPGAAPKLLIYDNNKRPSGIPDRFSGSKSGTSATLDITGLHSDDEADYYCGTWDSSLNTGGVFGTGTKVTVLGSRGGGGSGGGGSGGGGSLEMAEVQLVQSGAEVKKPGASVKVSCKASGYTFTSYTISWVRQAPGQGLEWMGWISTYNGLTNYAQNLQGRVTMTTDTFTTTAYMELRSLRSDDTAVYYCVREGSPDYGDFASFDYWGQGTLVTVSSTSGQAGQHHHHHHGAYPYDVPDYAS
notes: as for B1

Molecular target: T1, Fc Receptor-like 5 (FcRL5), full length, overexpressed on 3T3 or Raji cells (human, UniProt Q96RD9 16-977)
T1 construct: also called 3T3-FcRL5
T1 sequence: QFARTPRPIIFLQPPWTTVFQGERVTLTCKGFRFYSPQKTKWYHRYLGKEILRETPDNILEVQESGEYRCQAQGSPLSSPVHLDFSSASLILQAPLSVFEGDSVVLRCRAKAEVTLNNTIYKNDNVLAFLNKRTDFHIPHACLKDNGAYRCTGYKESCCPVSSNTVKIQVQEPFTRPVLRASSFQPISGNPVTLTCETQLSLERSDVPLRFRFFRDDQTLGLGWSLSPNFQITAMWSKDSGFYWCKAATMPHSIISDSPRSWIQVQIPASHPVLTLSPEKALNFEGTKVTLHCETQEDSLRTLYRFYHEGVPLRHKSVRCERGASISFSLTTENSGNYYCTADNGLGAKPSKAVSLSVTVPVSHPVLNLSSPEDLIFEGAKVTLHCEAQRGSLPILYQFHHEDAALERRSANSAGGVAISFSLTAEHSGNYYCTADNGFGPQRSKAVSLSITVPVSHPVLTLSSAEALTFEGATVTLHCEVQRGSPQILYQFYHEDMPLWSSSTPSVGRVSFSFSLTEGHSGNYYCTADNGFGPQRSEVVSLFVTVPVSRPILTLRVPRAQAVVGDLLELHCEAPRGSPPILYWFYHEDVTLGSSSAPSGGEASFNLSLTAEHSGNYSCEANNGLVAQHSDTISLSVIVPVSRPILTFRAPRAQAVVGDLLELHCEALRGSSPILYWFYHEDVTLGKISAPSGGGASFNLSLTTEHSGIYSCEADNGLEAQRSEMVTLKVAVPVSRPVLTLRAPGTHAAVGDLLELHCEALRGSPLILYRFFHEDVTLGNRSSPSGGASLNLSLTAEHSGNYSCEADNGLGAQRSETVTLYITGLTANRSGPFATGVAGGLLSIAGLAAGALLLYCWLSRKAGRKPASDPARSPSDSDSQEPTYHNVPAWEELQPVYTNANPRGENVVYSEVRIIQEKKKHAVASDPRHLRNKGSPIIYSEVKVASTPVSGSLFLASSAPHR
Experiment: phage clone screening on cells
Outline: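 scFv phage clones were incubated with live 3T3 cells overexpressing full-length FcRL5, then detected with mouse anti-M13 mAb and PE-anti-mouse Ig by flow cytometry. 3T3 cells expressing FcRL1, 2, 3, 4 or 6 served as negative-control targets.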

Binder | binding result
B1 | binds
B2 | binds
B3 | binds
B4 | binds
B5 | binds
B6 | binds
B7 | binds
B8 | binds
B9 | binds

Molecular target: T2, FcRL2, overexpressed on 3T3 cells (UniProt Q96LA5 20-508, limits assumed)
T2 construct: whole, on cells
T2 sequence (looked up): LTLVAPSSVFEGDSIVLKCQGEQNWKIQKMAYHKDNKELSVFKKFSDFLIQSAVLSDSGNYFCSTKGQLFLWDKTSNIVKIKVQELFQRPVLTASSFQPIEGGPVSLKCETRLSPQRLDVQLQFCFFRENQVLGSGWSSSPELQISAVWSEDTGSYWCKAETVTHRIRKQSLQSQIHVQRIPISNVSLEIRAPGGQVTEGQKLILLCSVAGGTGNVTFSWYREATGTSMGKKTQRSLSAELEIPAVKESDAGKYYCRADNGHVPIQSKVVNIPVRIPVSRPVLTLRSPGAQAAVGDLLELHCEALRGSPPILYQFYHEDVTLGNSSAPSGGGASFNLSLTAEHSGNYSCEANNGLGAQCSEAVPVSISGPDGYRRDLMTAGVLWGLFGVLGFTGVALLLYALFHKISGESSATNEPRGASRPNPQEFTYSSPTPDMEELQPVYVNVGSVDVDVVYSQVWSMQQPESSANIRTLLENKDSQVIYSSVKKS
Experiment: phage clone on 3T3-FcRL2 cells

Binder | binding result
B1 | no binding
B2 | no binding
B3 | no binding
B4 | no binding
B5 | no binding
B6 | no binding
B7 | no binding
B8 | no binding
B9 | no binding

Molecular target: T3, FcRL6, overexpressed on 3T3 cells (UniProt Q6DN72 20-434, limits assumed)
T3 construct: whole, on cells
T3 sequence (looked up): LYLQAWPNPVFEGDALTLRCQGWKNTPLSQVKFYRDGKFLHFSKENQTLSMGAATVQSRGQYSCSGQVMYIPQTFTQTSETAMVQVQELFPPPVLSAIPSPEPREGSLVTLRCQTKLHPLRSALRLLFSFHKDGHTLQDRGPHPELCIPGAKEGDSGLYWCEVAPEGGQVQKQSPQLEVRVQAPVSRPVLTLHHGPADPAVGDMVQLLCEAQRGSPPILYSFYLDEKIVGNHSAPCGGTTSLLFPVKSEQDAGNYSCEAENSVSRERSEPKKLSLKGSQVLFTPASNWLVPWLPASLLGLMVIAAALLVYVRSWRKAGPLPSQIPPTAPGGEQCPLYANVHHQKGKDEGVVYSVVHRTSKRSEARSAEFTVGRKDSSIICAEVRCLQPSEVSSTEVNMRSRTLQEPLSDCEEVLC
Experiment: phage clone on 3T3-FcRL6 cells

Binder | binding result
B1 | no binding
B2 | no binding
B3 | no binding
B4 | no binding
B5 | no binding
B6 | no binding
B7 | no binding
B8 | no binding
B9 | no binding

Molecular target: SLAMF9 protein (UniProt Q96A28 19-236, limits assumed)
Sequence (Q96A28 19-236 limits assumed): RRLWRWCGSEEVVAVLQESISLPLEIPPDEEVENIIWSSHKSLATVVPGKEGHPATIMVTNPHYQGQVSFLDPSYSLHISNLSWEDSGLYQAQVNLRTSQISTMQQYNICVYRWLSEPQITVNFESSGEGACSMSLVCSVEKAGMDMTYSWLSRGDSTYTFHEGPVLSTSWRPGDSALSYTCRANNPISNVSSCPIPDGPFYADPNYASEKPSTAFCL
Experiment: phage clone on SLAMF9 protein

Binder | binding result
B1 | no binding
B2 | no binding
B3 | no binding
B4 | no binding
B5 | no binding
B6 | no binding
B7 | no binding
B8 | no binding
B9 | no binding

Molecular target: T4, FcRL1, overexpressed on 3T3 cells (UniProt Q96LA6 17-429, limits assumed)
T4 construct: whole, on cells
T4 sequence (looked up): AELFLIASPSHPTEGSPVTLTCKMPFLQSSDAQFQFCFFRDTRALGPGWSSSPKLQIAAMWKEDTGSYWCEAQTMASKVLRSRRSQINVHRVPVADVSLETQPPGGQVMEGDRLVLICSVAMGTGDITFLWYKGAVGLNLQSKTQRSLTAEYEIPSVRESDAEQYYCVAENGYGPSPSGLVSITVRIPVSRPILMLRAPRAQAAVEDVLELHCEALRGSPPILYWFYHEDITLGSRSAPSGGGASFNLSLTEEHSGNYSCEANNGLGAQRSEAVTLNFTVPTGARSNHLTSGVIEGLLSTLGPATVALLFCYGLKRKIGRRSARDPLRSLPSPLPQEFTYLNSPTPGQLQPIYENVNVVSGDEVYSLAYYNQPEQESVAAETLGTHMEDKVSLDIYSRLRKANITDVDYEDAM
Experiment: phage clone on 3T3-FcRL1 cells

Binder | binding result
B1 | no binding
B2 | no binding
B3 | no binding
B4 | no binding
B5 | no binding
B6 | no binding
B7 | no binding
B8 | no binding
B9 | no binding
